Experimental data reported in paper PMC7530383.

Molecular target: actin (coated on the BLI biosensor)
Assay: BLI; APS biosensor coated with actin; rTLP-1 in PBS pH 7.4 with 0.05% Tween 20 and 0.1% BSA; Octet RED, 25 °C; 300 s association, 120 s dissociation; n = 3

Kd: 9.45 µM
Substance: Recombinant transgelin‐like protein 1 (rTLP‐1) from Mytilus coruscus (natural protein)
